Common to all, as to assay: BLI
Assay [1] concerns the target T1, hMCT1/hBSG (Homo sapiens).
T1 chain 1: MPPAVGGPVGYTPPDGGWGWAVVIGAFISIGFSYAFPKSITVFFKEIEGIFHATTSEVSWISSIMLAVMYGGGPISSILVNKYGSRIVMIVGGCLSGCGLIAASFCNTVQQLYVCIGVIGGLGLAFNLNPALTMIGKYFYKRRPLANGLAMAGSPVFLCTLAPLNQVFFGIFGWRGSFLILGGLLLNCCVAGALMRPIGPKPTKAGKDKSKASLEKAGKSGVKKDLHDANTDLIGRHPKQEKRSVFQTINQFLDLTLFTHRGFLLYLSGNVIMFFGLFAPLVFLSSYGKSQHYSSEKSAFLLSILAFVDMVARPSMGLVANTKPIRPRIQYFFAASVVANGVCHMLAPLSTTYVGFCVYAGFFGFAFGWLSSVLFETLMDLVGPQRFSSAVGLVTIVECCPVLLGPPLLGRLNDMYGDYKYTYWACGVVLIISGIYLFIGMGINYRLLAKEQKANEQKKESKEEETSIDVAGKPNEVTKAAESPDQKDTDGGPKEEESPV
T1 chain 2: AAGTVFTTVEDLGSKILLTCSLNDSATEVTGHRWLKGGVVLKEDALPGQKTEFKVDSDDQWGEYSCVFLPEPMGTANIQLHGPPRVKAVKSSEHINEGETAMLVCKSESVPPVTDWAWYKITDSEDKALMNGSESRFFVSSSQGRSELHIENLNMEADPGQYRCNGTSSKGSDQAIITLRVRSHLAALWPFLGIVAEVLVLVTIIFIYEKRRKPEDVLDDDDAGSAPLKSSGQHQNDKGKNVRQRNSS

Assay [2] concerns the target T1, hMCT1/hBSG.
Another assay has as its target T2, WT mMCT1/mBSG complex (mouse, UniProt P53986 1-493).
T2 chain 1: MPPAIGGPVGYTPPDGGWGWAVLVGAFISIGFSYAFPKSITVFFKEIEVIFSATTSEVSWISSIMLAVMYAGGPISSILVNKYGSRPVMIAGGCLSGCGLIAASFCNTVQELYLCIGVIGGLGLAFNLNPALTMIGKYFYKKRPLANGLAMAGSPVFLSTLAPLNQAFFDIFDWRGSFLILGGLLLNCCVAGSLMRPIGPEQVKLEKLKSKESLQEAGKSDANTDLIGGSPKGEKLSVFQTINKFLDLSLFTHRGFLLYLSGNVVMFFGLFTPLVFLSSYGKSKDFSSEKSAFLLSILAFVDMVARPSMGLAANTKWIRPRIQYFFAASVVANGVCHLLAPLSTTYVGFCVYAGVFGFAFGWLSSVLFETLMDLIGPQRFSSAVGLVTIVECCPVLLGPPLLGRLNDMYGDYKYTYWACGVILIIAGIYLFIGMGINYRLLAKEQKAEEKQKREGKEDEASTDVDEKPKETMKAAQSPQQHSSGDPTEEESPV
T2 chain 2: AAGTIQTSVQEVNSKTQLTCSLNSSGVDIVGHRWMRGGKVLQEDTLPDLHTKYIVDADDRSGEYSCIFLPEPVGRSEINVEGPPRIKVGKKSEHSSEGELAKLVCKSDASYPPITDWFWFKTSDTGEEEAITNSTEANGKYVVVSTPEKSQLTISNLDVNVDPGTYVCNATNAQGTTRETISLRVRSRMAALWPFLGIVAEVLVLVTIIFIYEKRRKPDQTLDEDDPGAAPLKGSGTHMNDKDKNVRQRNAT

B1: 6E7F1 monoclonal antibody (antibody, V domains shown)
VH: QVQLQQPGAELVKPGASVNLSCKASGYTFTNYWIHWVKQRPGQGLEWIGMIHPNSGTINYNEKFKTKATLTVDKSSSTAYMQLSSLTSEDSAVYYCARVGTGSLDYWGQGTSVTVSS
VL: DIVMTQSPATLSVTPGDRVSLSCRASQSISDYLHWYQQKSHESPRLLIKYVSQSISGIPSRFSGSGSGSYFTLSIDSVEPEDVGVYYCQNGHRFPYTFGGGTKLEIK
modifications: Full-length hMCT1 with hBSG isoform 2 (limits not given; signal peptide 1-21 removed by convention); Ig-domain disulfides; N-glycosylated BSG if expressed in mammalian cells
B1 yielded a Kd with hMCT1/hBSG [1] of 4.41 nM. The molecule further returned a koff with hMCT1/hBSG [2] of 0.000183 s⁻¹.

B2: 6E7F1 monoclonal antibody (antibody, V domains shown)
VH: QVQLQQPGAELVKPGASVNLSCKASGYTFTNYWIHWVKQRPGQGLEWIGMIHPNSGTINYNEKFKTKATLTVDKSSSTAYMQLSSLTSEDSAVYYCARVGTGSLDYWGQGTSVTVSS
VL: DIVMTQSPATLSVTPGDRVSLSCRASQSISDYLHWYQQKSHESPRLLIKYVSQSISGIPSRFSGSGSGSYFTLSIDSVEPEDVGVYYCQNGHRFPYTFGGGTKLEIK
On to B2, for which the affinity with WT mMCT1/mBSG complex, expressed as Kd, was 0.421 nM.

Source of the values: article PMC12053622 (2025).
